From publication PMC7261166

T1: SA2 (STAG2) (UniProt Q8N3U4 1-1231)
T1 sequence: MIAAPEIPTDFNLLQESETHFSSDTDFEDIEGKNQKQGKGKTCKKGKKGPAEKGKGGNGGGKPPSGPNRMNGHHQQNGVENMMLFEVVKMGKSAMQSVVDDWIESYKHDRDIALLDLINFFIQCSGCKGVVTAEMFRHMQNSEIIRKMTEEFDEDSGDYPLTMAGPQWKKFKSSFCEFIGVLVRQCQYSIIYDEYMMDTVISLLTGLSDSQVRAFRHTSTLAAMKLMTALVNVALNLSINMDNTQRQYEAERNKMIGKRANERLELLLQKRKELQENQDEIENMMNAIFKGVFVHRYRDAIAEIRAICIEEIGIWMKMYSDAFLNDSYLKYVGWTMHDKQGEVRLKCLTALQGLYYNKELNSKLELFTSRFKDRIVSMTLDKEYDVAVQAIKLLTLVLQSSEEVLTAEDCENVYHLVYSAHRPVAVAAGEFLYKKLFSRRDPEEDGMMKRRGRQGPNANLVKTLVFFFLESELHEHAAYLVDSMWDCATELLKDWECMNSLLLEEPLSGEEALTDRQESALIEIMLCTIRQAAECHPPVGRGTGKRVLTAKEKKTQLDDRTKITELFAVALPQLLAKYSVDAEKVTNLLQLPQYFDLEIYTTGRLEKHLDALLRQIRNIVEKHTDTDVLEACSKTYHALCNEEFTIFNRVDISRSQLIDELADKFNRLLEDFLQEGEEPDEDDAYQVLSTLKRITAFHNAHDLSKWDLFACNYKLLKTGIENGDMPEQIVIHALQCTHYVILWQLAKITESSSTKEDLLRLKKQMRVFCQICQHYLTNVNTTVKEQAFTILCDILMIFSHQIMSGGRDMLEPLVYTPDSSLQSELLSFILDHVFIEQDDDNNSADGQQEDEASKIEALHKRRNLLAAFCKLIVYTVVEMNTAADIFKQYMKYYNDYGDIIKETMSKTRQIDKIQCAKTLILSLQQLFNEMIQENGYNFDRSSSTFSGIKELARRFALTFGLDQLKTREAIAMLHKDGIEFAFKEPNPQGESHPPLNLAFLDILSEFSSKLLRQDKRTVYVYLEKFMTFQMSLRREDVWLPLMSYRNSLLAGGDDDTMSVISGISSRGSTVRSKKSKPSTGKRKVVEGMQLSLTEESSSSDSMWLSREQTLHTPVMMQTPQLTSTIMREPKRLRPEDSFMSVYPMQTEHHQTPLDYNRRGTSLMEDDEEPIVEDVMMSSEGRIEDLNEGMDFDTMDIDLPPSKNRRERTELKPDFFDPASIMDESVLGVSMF

T2: SA1 (STAG1) (UniProt Q8WVM7 1-1258)
T2 sequence: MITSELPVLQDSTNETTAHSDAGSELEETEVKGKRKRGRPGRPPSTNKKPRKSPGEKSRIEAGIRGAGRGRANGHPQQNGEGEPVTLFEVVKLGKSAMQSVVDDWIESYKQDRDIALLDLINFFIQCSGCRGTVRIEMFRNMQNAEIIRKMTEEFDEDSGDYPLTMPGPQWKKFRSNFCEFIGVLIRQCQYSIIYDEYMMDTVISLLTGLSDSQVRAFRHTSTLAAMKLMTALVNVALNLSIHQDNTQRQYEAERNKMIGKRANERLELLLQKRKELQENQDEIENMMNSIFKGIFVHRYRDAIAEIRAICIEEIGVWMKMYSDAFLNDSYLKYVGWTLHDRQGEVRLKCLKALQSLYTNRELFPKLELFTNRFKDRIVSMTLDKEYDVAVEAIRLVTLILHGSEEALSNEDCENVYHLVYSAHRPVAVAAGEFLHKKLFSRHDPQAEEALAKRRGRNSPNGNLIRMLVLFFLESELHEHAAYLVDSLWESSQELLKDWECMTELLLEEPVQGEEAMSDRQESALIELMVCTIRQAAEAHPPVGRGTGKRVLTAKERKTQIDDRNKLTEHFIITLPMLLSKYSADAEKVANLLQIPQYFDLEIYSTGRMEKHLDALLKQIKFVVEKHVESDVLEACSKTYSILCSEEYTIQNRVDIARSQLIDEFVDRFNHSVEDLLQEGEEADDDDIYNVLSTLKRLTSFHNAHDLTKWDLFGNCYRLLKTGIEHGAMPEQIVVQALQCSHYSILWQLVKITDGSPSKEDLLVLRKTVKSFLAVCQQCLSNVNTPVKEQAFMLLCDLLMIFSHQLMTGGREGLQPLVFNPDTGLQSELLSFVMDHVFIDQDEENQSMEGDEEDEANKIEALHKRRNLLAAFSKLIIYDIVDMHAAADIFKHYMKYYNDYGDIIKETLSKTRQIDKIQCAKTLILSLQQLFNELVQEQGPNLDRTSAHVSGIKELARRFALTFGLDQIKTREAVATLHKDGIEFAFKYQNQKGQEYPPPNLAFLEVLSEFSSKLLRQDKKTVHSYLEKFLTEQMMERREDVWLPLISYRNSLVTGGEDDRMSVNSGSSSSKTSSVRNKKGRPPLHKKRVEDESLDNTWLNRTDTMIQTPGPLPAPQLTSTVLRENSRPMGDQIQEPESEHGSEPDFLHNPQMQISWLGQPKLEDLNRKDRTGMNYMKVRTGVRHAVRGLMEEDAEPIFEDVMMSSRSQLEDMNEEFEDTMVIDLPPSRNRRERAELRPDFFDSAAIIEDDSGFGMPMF


How the values were obtained:
Test in all cases: fluorescence anisotropy
SA2 (STAG2) = target: T1, SA2 (STAG2)
SA1 (STAG1) = target: T2, SA1 (STAG1)
EWSR1 = EWSR1 (UniProt Q01844 1-656)
Chain of EWSR1 (Q01844 whole entry): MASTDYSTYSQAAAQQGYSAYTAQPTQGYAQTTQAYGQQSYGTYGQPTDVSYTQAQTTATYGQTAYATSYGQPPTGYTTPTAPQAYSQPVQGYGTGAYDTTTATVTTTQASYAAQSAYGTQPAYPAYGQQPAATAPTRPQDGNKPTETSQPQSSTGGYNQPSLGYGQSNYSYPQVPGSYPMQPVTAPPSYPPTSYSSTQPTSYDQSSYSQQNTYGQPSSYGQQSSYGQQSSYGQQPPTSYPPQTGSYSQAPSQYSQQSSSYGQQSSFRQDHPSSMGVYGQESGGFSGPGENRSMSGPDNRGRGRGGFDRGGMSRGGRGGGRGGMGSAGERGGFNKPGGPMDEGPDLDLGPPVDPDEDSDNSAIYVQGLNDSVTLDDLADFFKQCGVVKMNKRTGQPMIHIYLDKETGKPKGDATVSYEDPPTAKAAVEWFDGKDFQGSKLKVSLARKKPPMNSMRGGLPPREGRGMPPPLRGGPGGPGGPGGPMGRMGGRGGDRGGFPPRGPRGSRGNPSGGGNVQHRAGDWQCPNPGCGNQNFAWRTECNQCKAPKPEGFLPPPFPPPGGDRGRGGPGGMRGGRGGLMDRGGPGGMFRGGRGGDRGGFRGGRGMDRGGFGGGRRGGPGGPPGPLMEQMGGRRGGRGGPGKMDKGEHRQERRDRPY

Binder | Kd (SA2 (STAG2)) [nM] | Kd (SA1 (STAG1)) [nM] | Kd (EWSR1) [nM]
66 nt RNA-2 (ssRNA) RNA: UCGAAUUCUUGUUCUACAUCAACACCCACACACCCAACCACUCACCCUUACACUGUACGGAUCCAG | 5.1 ± 0.6 | 3 ± 0.1 | 
RNA:DNA hybrid (25 bp) (DNA:RNA) RNA: GCAGCUGGCACGACAGGUAUGAAUC DNA: GATTCATACCTGTCGTGCCAGCTGC | 43.3 ± 5.6 | 58.6 ± 1.5 | 
Model R-loop (mixed) RNA: GCAGCUGGCACGACAGGUAUGAAUC DNA 1: GCCAGGGACGAGGTGAACCTGCAGGTGGGCGGCTACTACTTAGATGTCATCCGAGGCTTATTGGTAGAATTCGGCAGCGTCATGCGACGGC DNA 2: GCCGTCGCATGACGCTGCCGAATTCTACCACGCGATTCATACCTGTCGTGCCAGCTGCTTTGCCCACCTGCAGGTTCACCTCGTCCCTGGC | 36 ± 4 | 38.4 ± 8.7 | 28.6 ± 0.8
RNA:DNA hybrid (45 bp) (DNA:RNA) RNA: CUGGAUCCGUACAGUGUAAGGGUGAGUGGUUGGGUGUGUGGGUGU DNA: ACACCCACACACCCAACCACTCACCCTTACACTGTACGGATCCAG | 31.7 ± 1.5 | 44 ± 5.9 | 27.7 ± 4.1
CUGGAUCCGUACAGUGUAAGGGUGAGUGGUUGGGUGUGUGGGUGU (ssRNA) [45 nt RNA] | 11.4 ± 1.2 | 6 ± 0.6 | 
GCAGCUGGCACGACAGGUAUGAAUC (ssRNA) [25 nt RNA (R-loop oligo)] | 251 ± 3.2 | 164 ± 37.4 | 134.2 ± 0.04
66 nt RNA-1 (ssRNA) RNA: CUGGAUCCGUACAGUGUAAGGGUGAGUGGUUGGGUGUGUGGGUGUUGAUGUAGAACAAGAAUUCGA | 7.2 ± 2.5 | 3.2 ± 0.3 | 35.1 ± 1.8
